The target of this experiment is aSyn-VC (alpha-synuclein fused in front of the C-terminal fragment of Venus) (UniProt P37840).

On to “VN-Sph1 K527A (from UniProt Q9Y6H5 1-919) (natural protein)”, for which the cells with fewer VN-Sph1 + aSyn-VC inclusions than with WT Sph1 (HEK 293, counted by microscopy) was 40%.
